Measurements: patent US20250136696A1 (HARBOUR BIOMED SHANGHAI, published 2025)

T1: biotinylated human B7-H7 protein (Acro Biosystems, B77-H82F5) (human, UniProt Q9UM44 23-344, biotinylated)
T1 construct: Bought soluble protein; also called biotin-B7H7 protein
T1 sequence (looked up): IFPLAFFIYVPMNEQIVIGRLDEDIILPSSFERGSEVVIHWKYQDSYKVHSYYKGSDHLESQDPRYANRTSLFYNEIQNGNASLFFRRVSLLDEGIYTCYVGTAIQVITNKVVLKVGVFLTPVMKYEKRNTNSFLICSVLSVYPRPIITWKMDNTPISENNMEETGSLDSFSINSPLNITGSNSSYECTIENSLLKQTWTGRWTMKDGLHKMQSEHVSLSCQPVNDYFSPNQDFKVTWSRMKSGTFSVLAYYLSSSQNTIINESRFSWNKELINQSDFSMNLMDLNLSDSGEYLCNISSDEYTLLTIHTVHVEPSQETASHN

T2: human B7-H7 on the cell surface (human, UniProt Q9UM44 23-414)
T2 construct: whole, on cells; also called hB7-H7; hu B7-H7
T2 sequence (looked up): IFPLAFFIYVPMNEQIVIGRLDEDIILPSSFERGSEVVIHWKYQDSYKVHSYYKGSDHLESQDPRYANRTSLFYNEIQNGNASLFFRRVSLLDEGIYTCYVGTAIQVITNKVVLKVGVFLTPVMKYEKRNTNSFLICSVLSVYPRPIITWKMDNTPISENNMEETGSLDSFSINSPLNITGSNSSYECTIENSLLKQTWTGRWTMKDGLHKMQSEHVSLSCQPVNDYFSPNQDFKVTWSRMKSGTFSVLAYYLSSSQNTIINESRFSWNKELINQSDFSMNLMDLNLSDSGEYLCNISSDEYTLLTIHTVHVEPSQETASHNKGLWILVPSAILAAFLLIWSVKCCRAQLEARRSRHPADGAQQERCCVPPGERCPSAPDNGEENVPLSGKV


Assays:
[1] = biological target: T1, biotinylated human B7-H7 protein (Acro …); assay: flow cytometry, blocking of biotinylated human B7-H7 binding to CHO-K1/KIR3DL3 cells
Excerpt: This example was intended to study the in vitro blocking activity of human anti-B7-H7 antibodies against the binding of human B7-H7 to its receptor KIR3DL3. A CHO-K1 cell (CHO-K1/KIR3DL3, Harbour BioMed US, Inc.) overexpressing human KIR3DL3 was used in experiments at the cellular level where human B7-H7/human KIR3DL3 binding was blocked. Briefly, the CHO-K1/KIR3DL3 cells were digested and resuspended in PBS containing 2% BSA. The cells were adjusted to a cell density of 1×10⁶ cells/mL. […] The cells were incubated at 4° C. for 1 hour in the dark. […] The cells were rinsed twice by adding pre-chilled PBS containing 2% BSA at 100 μL/well, and were centrifuged at 500 g at 4° C. for 5 minutes, and the supernatant was discarded. A fluorescent secondary antibody (PE Streptavidin, BD, Cat #: 554061, 1:200) was added at 100 μL/well, and the cells were incubated at 4° C. for 30 minutes in the dark. The cells were washed twice by adding pre-chilled PBS at 200 µL/well, and centrifuged at 500 g at 4° C. for 5 minutes, and the supernatant was discarded. Finally, the cells were resuspended in pre-chilled PBS at 200 μL/well, and the fluorescence signal values were read using an ACEA Novocyte3000 flow cytometer. IC50 was calculated.

[2] = biological target: T2, human B7-H7 on the cell surface; assay: flow cytometry, HCC827 cells
Protocol: This example was intended to study the in vitro activity of H2L2 monoclonal antibodies against human B7-H7 in binding to human/cynomolgus monkey B7-H7. Since homologous molecules of B7-H7 were not present in mice, the detection was not performed. […] The cells were adjusted to a cell density of 1×10⁶ cells/mL, respectively. The cells were seeded in a 96-well V-bottom plate (Corning, #3894) at 100 μL/well, and the antibody to be tested at 2× final concentration with 3-fold concentration gradient dilution was then added at 100 μL/well. The cells were incubated at 4° C. for 2 hours in the dark. After the incubation, the cells were rinsed twice by adding pre-chilled PBS containing 2% BSA at 100 μl/well, and centrifuged at 500 g at 4° C. for 5 minutes, and the supernatant was discarded. […] The cells were washed twice by adding pre-chilled PBS containing 2% BSA at 100 μL/well, and centrifuged at 500 g at 4° C. for 5 minutes, and the supernatant was discarded. Finally, the cells were resuspended in pre-chilled PBS containing 2% BSA at 200 μL/well, and the fluorescence signal values were read using an ACEA Novocyte3000 flow cytometer.

[3] = biological target: T1, biotinylated human B7-H7 protein (Acro …); assay: BLI epitope competition on SA-captured biotinylated B7-H7; competitor (first antibody) PR003249
Protocol: (§1) Epitope competition experiments were performed on the anti-B7-H7 antibodies using the ForteBio Octet Red96e platform with the same experimental buffer as described above. […] After being equilibrated in a buffer for 120 s, the sensors were immersed in various antibodies diluted to 100 nM for 240 s, and the final signal of the antibody binding to B7-H7 was recorded as the 100% signal for that antibody. Second step, epitope competition experiment: B7-H7 was captured using SA sensors at a capture height of 0.25 nm. The sensors were immersed in a first antibody (concentration: 100 nM) for 240 s, then the SA sensors were immersed in a mixture of the first antibody and a second antibody (final concentration of both antibodies: 100 nM) for 240 s, and the difference in signals before and after immersing the sensors in the mixture of the two antibodies was recorded as the signal for that antibody as the second antibody. The inhibition rate was calculated by the following equation, […]

[4] = biological target: T1, biotinylated human B7-H7 protein (Acro …); assay: BLI epitope competition on SA-captured biotinylated B7-H7; competitor (first antibody) PR003251
Protocol: as §1

| IC50 [1] | Maximum inhibition rate (%) [1] | EC50 [2] | Maximum MFI [2] | Competitive inhibition rate (%) [3] | Competitive inhibition rate (%) [4] | Binder |
| --- | --- | --- | --- | --- | --- | --- |
| 8.51 nM | 96.2% |  |  |  |  | PR004260 (antibody, human IgG1, kappa, L234A L235A, Variant of PR003181; Human IgG1 with LALA mutation in Fc) heavy: not shown light: DIVMSQSPSSLAVSAGEKVTMSCKSSQSLLNSRTRKNQLAWYQQKPGQSPKLLIYWASTRESGVPDRFTGSGSGTDFTLTISSVQAEDLAVYYCKQSYNLRTFGGGTKLEIKRTVAAPSVFIFPPSDEQLKSGTASVVCLLNNFYPREAKVQWKVDNALQSGNSQESVTEQDSKDSTYSLSSTLTLSKADYEKHKVYACEVTHQGLSSPVTKSFNRGEC |
| 8.56 nM | 104% | 0.618 nM | 57000 MFI | 109% |  | PR003264 (antibody, human IgG1, kappa, Human IgG1; also called 77G10D3) heavy: not shown light: DIQLTQSPSFLSASVGDRVTITCRASQGISSYFAWYQQKPGKAPKLLIYAASTLQSGVPSRFSGSGSGTEFTLTISSLQPEDFATYYCQHLNRYPWTFGQGTKVEIKRTVAAPSVFIFPPSDEQLKSGTASVVCLLNNFYPREAKVQWKVDNALQSGNSQESVTEQDSKDSTYSLSSTLTLSKADYEKHKVYACEVTHQGLSSPVTKSFNRGEC |
| 8.77 nM | 99.9% |  |  |  |  | PR004263 (antibody, human IgG1, kappa, L234A L235A, Variant of PR003264; Human IgG1 with LALA mutation in Fc) heavy: not shown light: DIQLTQSPSFLSASVGDRVTITCRASQGISSYFAWYQQKPGKAPKLLIYAASTLQSGVPSRFSGSGSGTEFTLTISSLQPEDFATYYCQHLNRYPWTFGQGTKVEIKRTVAAPSVFIFPPSDEQLKSGTASVVCLLNNFYPREAKVQWKVDNALQSGNSQESVTEQDSKDSTYSLSSTLTLSKADYEKHKVYACEVTHQGLSSPVTKSFNRGEC |
| 6.46 nM | 106% | 0.0439 nM | 53300 MFI | -3.18% | 100% | PR003260 (antibody, human IgG1, kappa, V domains shown, Human IgG1; also called 70F3B1) VH: QVQLVESGGGVVQPGRSLRLPCAASGFTFSRYGMHWVRQAPGKGLEWVADIWYDGSKKYYADSVKGRFTISRDNSKNTLYLQMNSLRAEDTAVYFCTRDGGYSYGPFDYWGQGTLVTVSS VL: EIVMTQSPATLSVSPGERATLSCRASQSVSSNLAWYQQKPGQAPRLLIYYASTRAPGIPARFSGSESGTEFTLTISSLQSEDFAVYYCQQYNIWPYTFGQGTKLEIKR |
| 6.23 nM | 103% | 0.0789 nM | 53200 MFI | -0.324% | 96.9% | PR003263 (antibody, human IgG1, kappa, V domains shown, Human IgG1; also called 77E6C4) VH: QVQLVESGGGVVQPGRSLRLSCAASGFTFSYYGLNWVRQAPGKGLEWVAVIWFDGTNKYYADSVKGRFTISRDDSKNTLYLQMNSLRAEDTAVYYCARGYGSGSYYNYVMDAWGQGASVTVSS VL: EIVMTQSPATLSVSPGERATLSCRASQSVSSNLAWYQQKPGQAPRLLIYGASTGATGIPARFSGSGSGTDFTLTISSLQSEDFAVYYCQQYYKWPLTFGGGTKVEIKR |
| 6.34 nM | 96.4% | 0.0373 nM | 53300 MFI | -6.54% | 97.9% | PR003251 (antibody, human IgG1, kappa, V domains shown, Human IgG1; also called 29F2C8) VH: QVQLVESGGGVVQPGRSLRLSCAVSGFTFSRYGMHWVRQAPGKGLDWVAVIWYNGNNKYYTDSVKGRFTISRDNSKNTLFLQMNSLRAEDTAVYYCARDGAYSYGPFDYWGQGTLVTVSS VL: not shown |
| 7.18 nM | 97.2% | 0.192 nM | 45900 MFI | -5.96% | 99.1% | PR003254 (antibody, human IgG1, kappa, V domains shown, Human IgG1; also called 59D6D2) VH: QVQLVESGGGVVQPGRSLRLSCAASGFTFSSYGMHWVRQAPGKGLEWVADIWYNGNNKYYADSVKGRFTISRDNSKNTLYLQMNSLRAEDTALYYCARDGGYSYGPFDYWGQGTLVTVSS VL: not shown |
| 9.93 nM | 105% | 0.041 nM | 54000 MFI | -2.6% | 96.4% | PR003262 (antibody, human IgG1, kappa, V domains shown, Human IgG1; also called 77D5A4) VH: QVQLVESGGGVVQPGRSLRLSCAASGFTFSRYGIHWVRQAPGKGLEWVAVIWYNGRNKYYVDSVKGRFTISRDNSKNTLYLQMNSLRAEDTAVYYCARDGGYSYGPFDYWGQGTLVTVSS VL: EIVMTQSPATLSVSPGERATLSCRASQSFSNNLAWYQQKPGQAPRLLIYGASTRATGIPARFSGSGSGTEFTLTISSLQSEDFAVYYCHQYNIWPLTFGGGTKVEIKR |
